In paper PMC8629192:

Biological target: SARS-CoV-2 spike protein (Wuhan-Hu-1), recombinant full-length spike with C-terminal histidine (SARS-CoV-2) (UniProt P0DTC2)
Test: ELISA

Sequence of LRRC15-Fc (Q8TF66 22-538): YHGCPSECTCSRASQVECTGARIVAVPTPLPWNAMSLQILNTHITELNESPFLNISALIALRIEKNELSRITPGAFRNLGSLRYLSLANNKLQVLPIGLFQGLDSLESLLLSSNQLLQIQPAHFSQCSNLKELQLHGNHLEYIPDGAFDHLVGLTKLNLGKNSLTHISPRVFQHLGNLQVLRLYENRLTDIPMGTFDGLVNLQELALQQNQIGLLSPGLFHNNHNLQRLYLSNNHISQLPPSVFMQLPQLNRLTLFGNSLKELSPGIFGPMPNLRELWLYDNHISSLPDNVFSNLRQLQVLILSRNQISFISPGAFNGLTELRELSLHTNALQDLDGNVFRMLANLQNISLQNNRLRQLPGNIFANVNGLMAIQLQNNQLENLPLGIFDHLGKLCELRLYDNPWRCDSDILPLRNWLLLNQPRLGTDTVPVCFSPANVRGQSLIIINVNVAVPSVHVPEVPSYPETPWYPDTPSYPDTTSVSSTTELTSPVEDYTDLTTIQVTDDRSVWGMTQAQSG

LRRC15-Fc (from UniProt Q8TF66) (Fc fusion)
Kd: 109 nM
